From patent US20250084163A1 (SORRENTO THERAPEUTICS, published 2025) come the findings set out here.

Where a chain is given by its changes, count along the chain named.

The target in experiment [1] is T1, Human ROR1 protein (UniProt Q01973-1) (human, UniProt Q01973 30-937).
T1 construct: Endogenous ROR1 of human tumour cell lines; also called ROR1 on A549, Raji (RAJI) and MCF7 cells; cognate antigen expressed at the surface of cells
Briefly: flow cytometry on A549, Raji and MCF7 cells (ROR1+). The method, then:
Flow cytometry was used to test antibody binding to adenocarcinomic human alveolar basal epithelial cell line A549 (ROR1+), Burkitt's lymphoma cell line RAJI (ROR1+), breast cancer cell line (ROR1+), A549 ROR1-KO cell line (ROR1 knockout) which is ROR1 negative, and Duke's type B adenocarcinoma cell line LS174T (ROR1 negative).
The cells were re-suspended in 120 µL/well of FACS buffer containing Goat anti-human IgG AF647 (1:2,000, Southern Biotech, Cat No. 2040-31, Lot No. D1817-T817C) and plate was incubated for 20 minutes at 4° C. in the dark.
FIGS. 4A-E show anti-human ROR1 antibodies RO6D8-s10, RO6D8-jlv1011, RO6A-a7gm and RO6A-a8gm binding to ROR1-expressing A549 (FIG. 4A), Raji (FIG. 4B), and MCF7 (FIG. 4C) cells; and ROR1 negative A549 ROR1-KO (FIG. 4D) and LS174T (FIG. 4E) cells.

Experiment [2] concerns the target T2, Recombinant truncated human his-tag ROR1 extracellular domain protein (human, UniProt Q01973 30-403).
T2 construct: the tag is part of the entry; also called his-tagged ROR1 protein; human ROR1 ECD
Briefly: SPR (Biacore T200), antibody captured by anti-human Fc, his-tagged ROR1 ECD as analyte. The procedure:
Binding kinetics of anti-ROR1 antibodies with his-tagged ROR1 protein were measured using surface plasmon resonance (SPR). The anti-ROR1 antibodies tested included proprietary antibodies RO6D8 wt, RO6D8-s10, RO6D8-jlv1011, and RO6D8-011. Anti-human fragment crystallizable region (Fc region) antibody was immobilized on a CM5 sensor chip to approximately 8,000 RU using standard N-hydroxysuccinimide/N-Ethyl-N′-(3-dimethylaminopropyl) carbodiimide hydrochloride (NHS/EDC) coupling methodology. The anti-ROR1 antibodies (1-2 μg/mL) were captured for 60 seconds at a flow rate of 10 μL/minute. The his-tagged ROR1 protein included amino acid 30 to amino acid 403 of SEQ ID NO: 1 (i.e., SEQ ID NO:2) (Acro Biosystems; Cat. No. RO1-H522Y). This polypeptide was serially diluted in a running buffer of 0.01 M HEPES pH 7.4, 0.15 M NaCl, 3 mM EDTA, 0.05% v/v Surfactant P20 (HBS-EP+) and run at 6 different dilutions. All measurements were conducted in HBS-EP+ buffer with a flow rate of 30 μL/minute. A 1:1 (Langmuir) binding model was used to fit the data. All BIACORE assays were performed at room temperature using Biacore T200 surface plasmon resonance (GE Healthcare).

For experiment [3], the target named is T3, Recombinant truncated human his-tag ROR1 Ig-like domain (human, UniProt Q01973 39-151).
T3 construct: also called human his-tag ROR1 Ig-like domain C-his; human ROR1 Ig-like domain
Briefly: ELISA, antibody coated at 5 ug/mL, his-tagged antigen at 2 ug/ml, anti-his HRP. The method, then:
(§1) Cross-reactivity of the anti-human ROR1 antibodies with his-tagged ROR1 recombinant protein from human and mouse, were analyzed by ELISA assay. The antibodies 5 μg/mL (RO6D8wt, RO6D8-s10, RO6D8-glv1011, RO6D8-jlv1011, RO6D8-1v1011) were diluted with PBS buffer and coated on a plate at 50 μL per well or control buffers coated on a plate at 50 μL per well. The plate was washed three times with 150 μL/well of PBS-T (PBSIX supplemented with 0.05% Tween 20). Subsequently, the plate was blocked with 100 μL/well of blocking buffer (blocker Casein in PBS from Bioworld, Cat. No. 40320020-2) for 1 hour at RT. The plates were washed 3 times with 150 μL/well of PBS-T, after blocking. Recombinant mouse his-tag ROR1, 2 μg/ml (Acro Biosystems Cat. No. RO1-M5221, Lot: 1201-48ESI-65), human his-tag ROR1 extracellular domain (SEQ ID NO:2), 1 μg/ml (Acro Biosystems Cat. No. RO1-H522Y, lot: C81-76KF1-FR), human his-tag ROR1 Ig-like domain C-his, 2 μg/ml (Acro Biosystems Cat. No. RO1-H5221, Lot: B311-59SSI-CA), human his-tag CD138, 2 μg/ml (Sino Cat. No. 11429-H08H, Lot: LCL07NO0412) (negative control antibody), and Casein/PBS buffer (control). 30 μl of his-tagged ROR1 antigen, his tagged CD138 or Casein/PBS buffer were added to the plate, per well, and incubated for 1 hour at room temperature. The plate was washed three times with 150 μL/well of PBS-T and anti 6x-his (SEQ ID NO:58) tag antibody HRP (Abcam; Cat. No. Ab1187) was incubated at dilution 1:5,000, 30 μL/well for 1 hour at RT. […] The signal was stopped at the desired saturation point by using 15 μL/well of 2 N sulfuric acid (H₂SO₄) stop solution and read on a plate reader at 450 nm.

The target in experiment [4] is T1, Human ROR1 protein (UniProt Q01973-1). Briefly: flow cytometry on A549 cells (ROR1+). The method, then: Flow cytometry was used to test antibody binding to adenocarcinomic human alveolar basal epithelial cell line A549 (ROR1+) and immortalized line of human T lymphocyte cell line Jurkat (ROR1 negative), using various anti-ROR1 antibodies. The cells were prepared at concentration of 1×10⁶/ml in FACS buffer (PBS, 2% FBS, and 0.05% azide). Cells were plated at 30 μl/well in a V-bottom 96-well plate. Anti-ROR1 antibodies (with RO6D8wt used as control) were diluted in FACS buffer (5X serial dilution starting from 50 μg/ml) and 30 μl was added to each well with either A549 or Jurkat cells for 60 min on ice. After incubation, the cells were centrifuged at 2000 rpm for 5 minutes, flip out supernatant. After 1 wash with 200 μL/well of FACS buffer, cells were incubated with an AF647 goat anti-human Fab2 antibody (Jackson ImmunoResearch; Cat. No. 109-606-088) (dilution 1:2000 in FACS buffer) at 50 μL/well for 40 min on ice. After incubation, the cells were centrifuged at 2000 rpm for 5 minutes, flip out supernatant. After 1 wash with 200 μL/well of FACS buffer cells were resuspended in 30 μl of FACS buffer and acquired by flow cytometry using IntelliCyt readout.

Experiment [5] has as its target T2, Recombinant truncated human his-tag …. The experiment is described as follows: ELISA, antibody coated at 5 ug/mL, his-tagged antigen at 1 ug/ml, anti-his HRP. The procedure: as §1, with “(control).” for “(control). 30 μl of his-tagged ROR1 antigen, his tagged CD138 or Casein/PBS buffer were added to the plate, per well, and incubated for 1 hour at room temperature. The plate was washed three times with 150 μL/well of PBS-T and anti 6x-his (SEQ ID NO:58) tag antibody HRP (Abcam; Cat. No. Ab1187) was incubated at dilution 1:5,000, 30 μL/well for 1 hour at RT.”

T3 sequence (Q01973 other isoform, or with tags, fused parts or gaps limits assumed): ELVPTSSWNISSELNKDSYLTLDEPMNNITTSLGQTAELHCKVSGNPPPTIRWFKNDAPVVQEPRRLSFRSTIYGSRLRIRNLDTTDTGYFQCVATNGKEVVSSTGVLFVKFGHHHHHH
T2 sequence (Q01973 other isoform, or with tags, fused parts or gaps limits assumed): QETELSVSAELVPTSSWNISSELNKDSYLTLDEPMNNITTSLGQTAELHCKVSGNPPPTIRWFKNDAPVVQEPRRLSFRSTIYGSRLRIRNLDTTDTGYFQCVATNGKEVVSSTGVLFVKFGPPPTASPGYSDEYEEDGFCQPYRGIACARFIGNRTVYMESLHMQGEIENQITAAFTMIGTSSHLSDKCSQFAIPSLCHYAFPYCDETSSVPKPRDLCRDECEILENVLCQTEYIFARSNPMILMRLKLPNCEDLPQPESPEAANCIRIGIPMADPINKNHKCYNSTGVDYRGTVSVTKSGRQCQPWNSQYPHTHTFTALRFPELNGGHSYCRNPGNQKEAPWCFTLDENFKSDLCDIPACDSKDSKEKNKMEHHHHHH
T1 sequence (Q01973 30-937 limits assumed, one chain of several): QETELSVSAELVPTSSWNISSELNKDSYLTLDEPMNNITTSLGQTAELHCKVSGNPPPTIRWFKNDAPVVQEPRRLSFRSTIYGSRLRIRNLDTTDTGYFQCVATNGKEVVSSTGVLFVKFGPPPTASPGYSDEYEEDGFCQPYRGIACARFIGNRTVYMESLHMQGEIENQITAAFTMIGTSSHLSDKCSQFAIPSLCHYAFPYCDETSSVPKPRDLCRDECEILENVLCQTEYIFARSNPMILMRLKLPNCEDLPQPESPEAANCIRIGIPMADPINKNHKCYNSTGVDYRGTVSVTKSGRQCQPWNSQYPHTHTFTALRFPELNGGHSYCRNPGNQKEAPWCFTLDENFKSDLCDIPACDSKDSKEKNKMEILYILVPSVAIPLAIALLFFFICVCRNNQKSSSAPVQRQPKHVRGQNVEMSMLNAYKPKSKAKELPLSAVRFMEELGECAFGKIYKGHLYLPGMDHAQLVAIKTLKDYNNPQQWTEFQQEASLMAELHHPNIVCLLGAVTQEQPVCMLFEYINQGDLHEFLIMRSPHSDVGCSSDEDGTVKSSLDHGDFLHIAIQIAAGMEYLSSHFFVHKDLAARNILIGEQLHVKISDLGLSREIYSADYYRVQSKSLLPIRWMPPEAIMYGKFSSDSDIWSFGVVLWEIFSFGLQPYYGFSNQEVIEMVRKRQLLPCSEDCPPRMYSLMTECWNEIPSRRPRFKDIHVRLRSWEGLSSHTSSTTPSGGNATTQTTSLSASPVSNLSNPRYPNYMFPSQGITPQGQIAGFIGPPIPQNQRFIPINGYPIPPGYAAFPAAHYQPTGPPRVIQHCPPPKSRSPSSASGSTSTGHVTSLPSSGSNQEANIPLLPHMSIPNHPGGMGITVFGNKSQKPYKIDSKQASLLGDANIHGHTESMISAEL

B1: RO6A-a8gm (antibody, V domains shown)
VH: QVQLVESGGGLVKPGGSLRLSCAASGFTFSDYYMTWIRQAPGKGLEWVSYISGSSAYSNYADSVKGRFTISRDNSKNTLYLQMNSLRAEDTAVYYCARDPLLYGWLTDWGQGTLVTVSS
VL: QSALTQPASVSGSPGQSITISCTGTSSDGGGYDSVSWYQQHPGKAPKLMIYDVNKRPSGVSGRFSGSKSGNTASLTISGLQAEDEADYYCSSFTSDVMVFGGGTKLTVL
notes: it was detected with goat anti-human IgG and compared with an IgG1 isotype control
As to B1, the binding result in experiment [1] is “binds”.

B2: RO6D8-s10 (antibody, V domains shown)
VH: QVQLVQSGAEVKKPGASVKVSCKASGYTFTNYYMHWVRQAPGQGLEWMGIINPSGGSTSYAQKFQGRVTMTRDTSTSTVYMELSSLRSEDTAVYYCARSSRSSYYLWVLDLWGQGTTVTVSS
VL: AIQMTQSPSSLSASVGDRVTITCRASQGVSTEIAWYQQKPGKAPKLLIYAASSLQSGVPSRFSGSGSGTDFTLTISSLQPEDFATYYCQQFNSYPITFGQGTRLEIK
Turning to B2, the binding result in experiment [2], in experiment [3] and in experiment [4] was “binds” each time.

B3: RO6D8-jlv1011 (antibody, V domains shown)
VH: QVQLVQSGAEVKKPGASVKVSCKASGYTFTSKYYHWVRQAPGQGLEWMGIINPTSGSTSYAQKFQGRVTMTRDTSTSTVYMELSSLRSEDTAVYYCARDSSRYSGWYFDLWGQGTTVTVSS
VL: B2 VL with M4L, F91Y, N92Y, S93G, T97A
As for B3, the binding result in experiment [2], in experiment [3] and in experiment [4] was “binds” each time.

B4: RO6D8wt (antibody, V domains shown)
VH: B2 VH with S99D, R101S, S103W, Y105S, L106G, V108Y, L109F
VL: B2 VL with G28D, S30R, T31A, E32H, I33L
notes: it was captured by an anti-human Fc antibody in SPR, so it carries a human Fc; also called wildtype anti-human ROR1 antibody
B4: the binding result in experiment [5], in experiment [3] and in experiment [4] was “binds” each time.

B5: RO6D8-011 (antibody, V domains shown)
VH: B2 VH with S54T, G55S, S57R, S99D, R101S, S103W, Y105S, L106G, V108Y, L109F
VL: B2 VL with V29I, S30R, E32D, I33L, F91Y, N92Y, S93G, T97A
notes: it was captured by an anti-human Fc antibody in SPR; also called RO6D8-O11
With B5, the binding result in experiment [2] is “binds”.
